Results taken from paper PMC11082181.

How the values were obtained:
[1] = target: ZGGS15, anti-LAG-3/TIGIT bispecific IgG4 antibody (human); assay: BLI; ZGGS15 or BM (4 µg/mL) loaded to protein A probes; FcγRI 30 to 1 nM in solution; 150 s association, 200 s dissociation; BLI kinetics assay buffer; 25 °C, 1000 rpm
[2] = target: Relatlimab analog, anti-LAG-3 benchmark (human); assay: as above
Sequence of Relatlimab analog, anti-LAG-3 benchmark (human) (heavy, as listed by the source, chain 1 of 2): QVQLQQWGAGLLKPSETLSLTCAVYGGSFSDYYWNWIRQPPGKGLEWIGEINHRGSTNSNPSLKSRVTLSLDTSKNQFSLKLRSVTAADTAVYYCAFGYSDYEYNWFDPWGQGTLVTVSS
Sequence of Relatlimab analog, anti-LAG-3 benchmark (human) (light, as listed by the source, chain 2 of 2): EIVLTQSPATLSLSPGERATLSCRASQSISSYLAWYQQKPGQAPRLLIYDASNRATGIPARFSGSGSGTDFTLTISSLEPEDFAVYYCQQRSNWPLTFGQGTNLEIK

Kd [1]: 2.6 nM
Kd [2]: 3 nM
Substance: human Fc-gamma receptor I (FcγRI) (from UniProt P12314 16-374)
